Measurements from publication PMC10164722, “Crystal Structure of Mesaconyl-CoA Hydratase from Methylorubrum extorquens CM4” (Journal of Microbiology and Biotechnology, 2023).

Target: the molecule itself
Experiment: crystal structure; MeMeaC with malic acid, 1.95 Å, space group P6_(3), one molecule in the asymmetric unit; trimer by crystallographic symmetry (PDBePISA also suggested a trimer)

B1: mesaconyl-CoA hydratase from Methylorubrum extorquens CM4 (enzyme, UniProt C5B1K4 1-348, looked up)
chain: MKTNPGRFFEDFRLGETIRHATPRTVTTGDVALYTALYGPRFAVQSSDAFAKAIGHPASPLDDLLTFHVVFGKTVPDVSLNALANLGYAEGGFHRPVYPGETLSTVSEVIGLKESSNRQTGVVYVRSTGSDASGQTVLSYCRWVLVRKRDPEAKIAEEHVPQLAKVVNPADLAHALPPLDPAAYDNALAGSPHRFADYAVGEKIDHVDGMTVEEAEHQIATRLFQNTAKVHFDAVATKETKFGKRLIYGGHVISLARALSFNGLANAFAIGGINAGRHVAPLFAGDTVYAWSEVLETAELPGRSDIGALRLRTVATKNQSCGAYPDKQGEGYDPSVILDLDYWAFIPR
notes: Mesaconyl-CoA hydratase MeaC (locus Mchl_4075) of Methylorubrum extorquens CM4; subdomains printed as residues 1~147 (MeaC^N), 148~190 (MeaC^Br) and 191~348 (MeaC^C); Surmised: cloning into pET30a by NdeI/XhoI with a reverse primer that has no stop codon would put the vector's His6 tag (after Leu-Glu) at the C-terminus; also called MeMeaC; MeaC; source: E. coli BL21(DE3)-T1R, purified (Ni-NTA, …)
- stoichiometry N: 3
